Legend:
HER2 = HER2 (Homo sapiens (Human), UniProt P04626 23-652); test: ELISA; PBS pH 7.4, 2.0 mM MgCl2, 0.02% Tween 20, 100 ug/mL salmon sperm DNA; ELISA 0.5 h; cells at RT 1 h (Methods) or 37 C 30 min (Results); conditions: protein: commercial
[1] = molecular target: T1, CD63 large extracellular domain, recombinant (Homo sapiens, UniProt P08962 103-203); test: as above; conditions: protein: commercial, tags: C-terminal His
[2] = molecular target: T1, CD63 large extracellular domain, …; test: ELISA; 200 nM aptamer; PBS pH 7.4, 2.0 mM MgCl2, 0.02% Tween 20, 100 ug/mL salmon sperm DNA; ELISA 0.5 h; cells at RT 1 h (Methods) or 37 C 30 min (Results); conditions: protein: commercial; tags: C-terminal His; label: biotin

T1 sequence (P08962 103-203): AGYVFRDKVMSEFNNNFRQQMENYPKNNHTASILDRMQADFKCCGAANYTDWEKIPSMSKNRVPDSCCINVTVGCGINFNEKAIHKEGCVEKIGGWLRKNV

B1: CD63-2 (ssDNA)
DNA: TAACCACCCCACCTCGCTCCCGTGACACTAATGCTAATTCCAA
- binding result (HER2; label: biotin (ELISA)): no binding
- Kd ([1]; label: biotin (ELISA)): 78.4 nM

B2: CD63-6 (ssDNA)
DNA: TACCTACGACATGCCTGTGCTAGCCGAACCATGCTGAGGTCGT
- binding result [2]: no binding

B3: CD63-1 (ssDNA)
DNA: TAACACGACAGACGTTCGGAGGTCGAACCCTGACAGCGTGGGC
- binding result (HER2; label: 5' or 3' biotin (ELISA)): no binding
- Kd ([1]; label: 5' or 3' biotin (ELISA)): 38.7 nM

Source: article PMC7730289, “Development of a CD63 Aptamer for Efficient Cancer Immunochemistry and Immunoaffinity-Based Exosome Isolation”
